The results in this text go back to publication doi:10.1101/2022.03.07.483330 (bioRxiv, 2022).

In test [1] the target is human wild-type DLL4 (N-EGF5, residues 27-400) (human, UniProt Q9NR61 27-400). The test is described as follows: SPR. (In general: In SPR one partner is held on a chip, and binding of the other changes the refractive index at the surface.)
For test [2], the target named is DLL4.v2 (N-EGF5) (human, UniProt Q9NR61 27-400, N257P | T271L | F280Y | S301R | Q305P). Kind of test: SPR.
Sequence of DLL4.v2 (N-EGF5) (Q9NR61 27-400 N257P/T271L/F280Y/S301R/Q305P): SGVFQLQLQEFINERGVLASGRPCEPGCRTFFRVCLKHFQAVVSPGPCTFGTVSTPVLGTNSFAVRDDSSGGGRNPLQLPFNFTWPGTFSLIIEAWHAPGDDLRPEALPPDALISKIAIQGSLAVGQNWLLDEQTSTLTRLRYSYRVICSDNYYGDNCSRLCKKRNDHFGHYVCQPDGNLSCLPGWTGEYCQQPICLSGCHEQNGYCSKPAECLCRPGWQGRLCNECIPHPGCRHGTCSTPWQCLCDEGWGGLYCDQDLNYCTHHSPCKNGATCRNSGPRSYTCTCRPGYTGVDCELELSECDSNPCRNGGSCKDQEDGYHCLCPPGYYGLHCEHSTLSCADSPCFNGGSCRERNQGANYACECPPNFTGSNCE

Sequence of human wild-type DLL4 (N-EGF5, residues 27-400) (Q9NR61 27-400): as the sequence (Q9NR61 27-400 N257P/T271L/F280Y/S301R/Q305P) above, with P231N, L245T, Y254F, R275S, P279Q counted along it

B1: human Notch2 (EGF6-13, residues 221-530), biotinylated (domain or fragment, UniProt Q04721 221-530, looked up)
chain: LYVPCAPSPCVNGGTCRQTGDFTFECNCLPGFEGSTCERNIDDCPNHRCQNGGVCVDGVNTYNCRCPPQWTGQFCTEDVDECLLQPNACQNGGTCANRNGGYGCVCVNGWSGDDCSENIDDCAFASCTPGSTCIDRVASFSCMCPEGKAGLLCHLDDACISNPCHKGALCDTNPLNGQYICTCPQGYKGADCTEDVDECAMANSNPCEHAGKCVNTDGAFHCECLKGYAGPRCEMDINECHSDPCQNDATCLDKIGGFTCLCMPGFKGVHCELEINECQSNPCVNNGQCVDKVNRFQCLCPPGFTGPVCQ
modifications: biotin on the C-terminal BAP-tag (BirA)
Turning to B1, the binding result in test [1] and in test [2] was “binds” each time.

B2: mouse Notch1 (EGF6-13, residues 221-526), biotinylated (domain or fragment, UniProt Q01705 221-526, looked up)
chain: PCSPSPCQNGGTCRPTGDTTHECACLPGFAGQNCEENVDDCPGNNCKNGGACVDGVNTYNCRCPPEWTGQYCTEDVDECQLMPNACQNGGTCHNTHGGYNCVCVNGWTGEDCSENIDDCASAACFQGATCHDRVASFYCECPHGRTGLLCHLNDACISNPCNEGSNCDTNPVNGKAICTCPSGYTGPACSQDVDECALGANPCEHAGKCLNTLGSFECQCLQGYTGPRCEIDVNECISNPCQNDATCLDQIGEFQCICMPGYEGVYCEINTDECASSPCLHNGHCMDKINEFQCQCPKGFNGHLCQ
modifications: biotin on the C-terminal BAP-tag (BirA)
Consider B2, for which the binding result in test [1] and in test [2] was “binds” in each case.

B3: human Notch4 (EGF7-12, residues 276-511), biotinylated (domain or fragment, UniProt Q99466 276-511, looked up)
chain: NPDNCVSHQCQNGGTCQDGLDTYTCLCPETWTGWDCSEDVDECETQGPPHCRNGGTCQNSAGSFHCVCVSGWGGTSCEENLDDCIAATCAPGSTCIDRVGSFSCLCPPGRTGLLCHLEDMCLSQPCHGDAQCSTNPLTGSTLCLCQPGYSGPTCHQDLDECLMAQQGPSPCEHGGSCLNTPGSFNCLCPPGYTGSRCEADHNECLSQPCHPGSTCLDLLATFHCLCPPGLEGQLCE
modifications: biotin on the C-terminal BAP-tag (BirA)
Regarding B3, the binding result in test [1] and in test [2] was “binds” in each case.

B4: human Notch3 (EGF5-12, residues 197-505), biotinylated (domain or fragment, UniProt Q9UM47 197-505, looked up)
chain: PAVPCAPSPCRNGGTCRQSGDLTYDCACLPGFEGQNCEVNVDDCPGHRCLNGGTCVDGVNTYNCQCPPEWTGQFCTEDVDECQLQPNACHNGGTCFNTLGGHSCVCVNGWTGESCSQNIDDCATAVCFHGATCHDRVASFYCACPMGKTGLLCHLDDACVSNPCHEDAICDTNPVNGRAICTCPPGFTGGACDQDVDECSIGANPCEHLGRCVNTQGSFLCQCGRGYTGPRCETDVNECLSGPCRNQATCLDRIGQFTCICMAGFTGTYCEVDIDECQSSPCVNGGVCKDRVNGFSCTCPSGFSGSTCQ
modifications: biotin on the C-terminal BAP-tag (BirA)
For the molecule B4, the binding result in test [1] and in test [2] was “binds” each time.
